In patent US20190300590A1 (PROTAGONIST THERAPEUTICS, published 2019):
Bridges are numbered along the chain shown (N, C = ends). [ ]: non-standard residue; d: D form. The star is where a group is joined. Palmitoyl = CCCCCCCCCCCCCCCC(=O)*; β3hR = N=C(N)NCCC[C@H](N)CC(=O)O; NMeK = CN[C@@H](CCCCN)C(=O)O; AEA = NCCOCC(=O)O

B1: Ac-CQTWQCYW-[βhArg]-VNG-[AEA]-[(D)Lys]-NH2 (peptide)
peptide: Ac-CQTWQCYW[β3hR]VNG[AEA][dK]-NH2
modifications: disulfide 1-6
SMILES: CC(=O)N[C@H]1CSSC[C@@H](C(=O)N[C@@H](Cc2ccc(O)cc2)C(=O)N[C@@H](Cc2c[nH]c3ccccc23)C(=O)N[C@@H](CCCNC(=N)N)CC(=O)N[C@H](C(=O)N[C@@H](CC(N)=O)C(=O)NCC(=O)NCCOCC(=O)N[C@H](CCCCN)C(N)=O)C(C)C)NC(=O)[C@H](CCC(N)=O)NC(=O)[C@H](Cc2c[nH]c3ccccc23)NC(=O)[C@H]([C@@H](C)O)NC(=O)[C@H](CCC(N)=O)NC1=O

What follows are binders tested against T1, IL-23R on human cells (IL-23R-expressing DB cells; human NK cells) (human, UniProt Q5VWK5 24-629) (assay: cell-based or functional assay).
T1 sequence (looked up): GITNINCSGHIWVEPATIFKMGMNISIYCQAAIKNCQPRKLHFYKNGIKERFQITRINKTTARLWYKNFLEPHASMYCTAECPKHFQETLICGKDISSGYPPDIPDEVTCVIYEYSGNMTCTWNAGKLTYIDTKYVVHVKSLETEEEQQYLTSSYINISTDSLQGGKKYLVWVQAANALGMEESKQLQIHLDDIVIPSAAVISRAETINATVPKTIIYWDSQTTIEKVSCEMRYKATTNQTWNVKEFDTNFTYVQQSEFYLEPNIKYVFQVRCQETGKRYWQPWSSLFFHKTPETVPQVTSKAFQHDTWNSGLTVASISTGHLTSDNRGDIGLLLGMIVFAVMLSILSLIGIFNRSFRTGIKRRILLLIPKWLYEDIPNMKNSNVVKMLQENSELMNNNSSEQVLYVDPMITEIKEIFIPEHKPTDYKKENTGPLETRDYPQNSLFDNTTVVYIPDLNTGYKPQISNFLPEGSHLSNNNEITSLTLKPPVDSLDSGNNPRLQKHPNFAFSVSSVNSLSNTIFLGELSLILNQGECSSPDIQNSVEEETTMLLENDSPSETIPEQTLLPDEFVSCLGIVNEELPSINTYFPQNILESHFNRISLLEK

Binder	NK cell assay IC50 (IFNγ) [nM]
XNTWQXFXXKNN (as bracketed in name; Pen-Pen disulfide) [Ac-[Pen]-NTWQ-[Pen]-[Phe]4-(2-aminoethoxy)]-[2-Nal]-[Aib]-[Lys(Ac)]-NN-NH2]	< 10
XNTWQXFXXKNA (as bracketed in name; Pen-Pen disulfide) [Ac-[Pen]-NTWQ-[Pen]-[Phe]4-(2-aminoethoxy)]-[2-Nal]-[Aib]-[Lys(Ac)]-N-[βAlal-NH2]	< 10
XNTWQXFXXKNN (as bracketed in name; Pen-Pen disulfide) [Ac-[Pen]-NTWQ[Pen]-[Phe(CONH2)]-[2-Nal]-[Aib]-[Lys(Ac)]-NN-NH2]	< 10
XNTWQXFXXKNN (as bracketed in name; Pen-Pen disulfide; DIG linker) [[Ac-[Pen]-NTWQ-[Pen]-[Phe(4-CONH2)]-[2-Nal]-[Aib]-KNN-NH2]2 DIG]	< 10

The binders below were run against T2, IL23R_huFC (human, UniProt Q5VWK5 24-353) (assay: IL23-IL23R competitive ELISA).
T2 sequence (looked up): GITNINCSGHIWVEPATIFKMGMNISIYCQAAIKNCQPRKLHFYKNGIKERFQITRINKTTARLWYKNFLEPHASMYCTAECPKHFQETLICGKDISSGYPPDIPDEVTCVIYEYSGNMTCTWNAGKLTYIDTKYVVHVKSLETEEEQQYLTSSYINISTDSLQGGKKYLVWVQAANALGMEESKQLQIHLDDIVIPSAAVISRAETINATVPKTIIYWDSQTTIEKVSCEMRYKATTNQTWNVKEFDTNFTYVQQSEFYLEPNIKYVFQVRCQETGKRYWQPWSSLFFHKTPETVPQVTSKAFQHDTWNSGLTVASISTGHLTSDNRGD

Binder	IC50 [µM]
Ac-ARTWQ[MeCys]YWRKFG[AEA][dK]-NH2 (not fully specified; printed as Ac-ARTWQ-[MeCys]-YWRKFG-[AEA]-[(D)Lys]-NH2) [Ac-ARTWQ-[MeCys]-YWRKFG-[AEA]-[(D)Lys]-NH2]	7.57
Ac-C[NMeK]TWQCYWRVFG[AEA][dK]-NH2 (cysteine pairing not given here) [Ac-C-[N-MeLys]-TWQCYWRVFG-[AEA]-[(D)Lys]-NH2]	0.08
Ac-CKTWQCYWRVFG[AEA][dK]-NH2 (cysteine pairing not given here) [Ac-CKTWQCYWRVFG-[AEA]-[(D)Lys]-NH2]	0.04
CADWVCYFXXFGXK (not fully specified; Ac-; [Phe(CONH2)]; [Orn]; [Dap]; [AEA]; [(D)Lys]; -NH2) [Ac-CADWVCY-[Phe(CONH2)]-[Orn]-[Dap]-FG-[AEA]-[(D)Lys]-NH2]	~6
CADWVCYFXXFGXK (not fully specified; Ac-; [hPhe]; [Orn]; [Dap]; [AEA]; [(D)Lys]; -NH2) [Ac-CADWVCY-[hPhe]-[Orn]-[Dap]-FG-[AEA]-[(D)Lys]-NH2]	30
B1	0.922

Each binder was assayed against T3, IL23R_huFC (human, UniProt Q5VWK5 24-353) (assay: IL23-IL23R competitive binding ELISA).
T3 sequence (looked up): T2 sequence (looked up)

Binder	IC50 [nM]
Ac-CQTWQCYWK(Palmitoyl)ENG-NH2 (cysteine pairing not given here) [Ac-CQTWQCYW-[K(Palm)]-ENG-NH2]	4880
CQTWQCYWXLNG (Ac; Z as printed (not explained); NH2) [Ac-CQTWQCYWZ-LNG-NH2]	800
CQTWQCXWXENG (not fully specified; Ac; X7 = Cha; X9 = hLeu; NH2) [Ac-CQTWQC-[Cha]-W-[hLeu]-ENG-NH2]	~6000
Ac-CQTWQCYW[dL]ENG-NH2 (cysteine pairing not given here) [Ac-CQTWQCYW-[(D)Leu]-ENG-NH2]	319

These binders were tested against T4, IL-23R on DB cells (human, UniProt Q5VWK5 24-629) (assay: cell-based or functional assay).
T4 sequence (looked up): T1 sequence (looked up)

Binder	pStat3 HTRF IC50 [nM]
CQTWQCYWXENG (not fully specified; Ac; Ogl; NH2) [Ac-CQTWQCYW-[Ogl]-ENG-NH2]	76
